The values below come from publication PMC10018365, “Cryo-EM structure of the fully assembled Elongator complex” (Nucleic Acids Research, 2023).

Data set [1] addresses T1, Homo sapiens Elp123 subcomplex, wild type (Homo sapiens, UniProt O95163 1-1332; Q6IA86 1-826; Q9H9T3 1-547).
T1 construct: Elp1, human, ORF; Elp2, human, ORF; Elp3, human, ORF; also called human Elp123; source: Sf9-3 insect cells (baculovirus, biGBac), purified (StrepTrap, heparin, Superose 6); not shown: Twin-Strep-tag, C-terminal, kept; copies: 2 + 2 + 2
As to the kind of experiment: pull-down; 10 μg bait, 20 μg prey; Elp123 on StrepTactin Sepharose by Twin-Strep-tagged Elp3, or Elp456 on anti-DYKDDDDK resin by FLAG-tagged Elp6; 30-60 min at 4°C; washes in 20 mM HEPES pH 7.5, 100 mM NaCl, 1 mM DTT, 0.05% Tween 20; SDS-PAGE with Coomassie or silver stain; also with ATP and bulk tRNA. To be noted: both partners purified.

Data set [2] deals with the molecule itself. As to the kind of experiment: cryo-EM structure; ScElongator purified from overexpressing yeast, native sample (4.35 Å) and BS3-stabilised sample (6.6 Å; two-lobed map 17.2 Å); sample buffer 20 mM HEPES pH 7.5, 100 mM NaCl, 3 mM DTT.

T1 sequence (O95163 whole entry, chain 1 of 3): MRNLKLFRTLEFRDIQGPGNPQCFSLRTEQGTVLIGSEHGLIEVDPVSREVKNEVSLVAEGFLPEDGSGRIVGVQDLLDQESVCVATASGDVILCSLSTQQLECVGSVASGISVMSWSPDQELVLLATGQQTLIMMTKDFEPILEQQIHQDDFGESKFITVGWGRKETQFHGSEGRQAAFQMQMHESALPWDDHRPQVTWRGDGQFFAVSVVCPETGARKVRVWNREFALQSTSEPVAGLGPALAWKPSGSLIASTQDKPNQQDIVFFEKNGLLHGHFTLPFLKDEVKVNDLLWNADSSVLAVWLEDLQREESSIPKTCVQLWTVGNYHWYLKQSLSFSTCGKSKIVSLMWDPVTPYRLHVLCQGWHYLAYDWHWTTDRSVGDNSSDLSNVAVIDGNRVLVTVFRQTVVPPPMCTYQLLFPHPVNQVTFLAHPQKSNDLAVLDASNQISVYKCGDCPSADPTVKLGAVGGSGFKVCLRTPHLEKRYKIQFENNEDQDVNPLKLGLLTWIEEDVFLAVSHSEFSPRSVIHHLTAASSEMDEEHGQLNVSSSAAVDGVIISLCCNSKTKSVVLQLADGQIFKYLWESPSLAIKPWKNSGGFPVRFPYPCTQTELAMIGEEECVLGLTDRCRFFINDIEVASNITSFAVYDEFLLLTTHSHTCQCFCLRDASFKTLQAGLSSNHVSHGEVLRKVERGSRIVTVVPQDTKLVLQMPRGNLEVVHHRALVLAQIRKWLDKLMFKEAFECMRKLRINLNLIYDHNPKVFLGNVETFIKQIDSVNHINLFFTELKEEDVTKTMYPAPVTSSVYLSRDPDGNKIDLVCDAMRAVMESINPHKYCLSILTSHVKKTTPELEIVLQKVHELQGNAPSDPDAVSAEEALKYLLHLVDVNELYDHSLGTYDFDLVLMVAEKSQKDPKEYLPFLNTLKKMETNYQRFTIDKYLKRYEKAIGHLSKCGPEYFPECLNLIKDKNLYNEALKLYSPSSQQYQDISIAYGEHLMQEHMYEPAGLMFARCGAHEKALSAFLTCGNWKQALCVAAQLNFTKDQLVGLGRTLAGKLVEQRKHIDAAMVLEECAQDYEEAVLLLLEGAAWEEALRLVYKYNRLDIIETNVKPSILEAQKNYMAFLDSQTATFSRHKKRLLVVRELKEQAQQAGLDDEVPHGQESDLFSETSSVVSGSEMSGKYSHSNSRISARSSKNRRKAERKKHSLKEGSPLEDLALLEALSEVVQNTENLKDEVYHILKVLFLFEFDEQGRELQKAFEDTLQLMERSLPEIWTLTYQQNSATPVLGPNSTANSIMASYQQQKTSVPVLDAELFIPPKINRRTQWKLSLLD
T1 sequence (Q6IA86 whole entry, chain 2 of 3): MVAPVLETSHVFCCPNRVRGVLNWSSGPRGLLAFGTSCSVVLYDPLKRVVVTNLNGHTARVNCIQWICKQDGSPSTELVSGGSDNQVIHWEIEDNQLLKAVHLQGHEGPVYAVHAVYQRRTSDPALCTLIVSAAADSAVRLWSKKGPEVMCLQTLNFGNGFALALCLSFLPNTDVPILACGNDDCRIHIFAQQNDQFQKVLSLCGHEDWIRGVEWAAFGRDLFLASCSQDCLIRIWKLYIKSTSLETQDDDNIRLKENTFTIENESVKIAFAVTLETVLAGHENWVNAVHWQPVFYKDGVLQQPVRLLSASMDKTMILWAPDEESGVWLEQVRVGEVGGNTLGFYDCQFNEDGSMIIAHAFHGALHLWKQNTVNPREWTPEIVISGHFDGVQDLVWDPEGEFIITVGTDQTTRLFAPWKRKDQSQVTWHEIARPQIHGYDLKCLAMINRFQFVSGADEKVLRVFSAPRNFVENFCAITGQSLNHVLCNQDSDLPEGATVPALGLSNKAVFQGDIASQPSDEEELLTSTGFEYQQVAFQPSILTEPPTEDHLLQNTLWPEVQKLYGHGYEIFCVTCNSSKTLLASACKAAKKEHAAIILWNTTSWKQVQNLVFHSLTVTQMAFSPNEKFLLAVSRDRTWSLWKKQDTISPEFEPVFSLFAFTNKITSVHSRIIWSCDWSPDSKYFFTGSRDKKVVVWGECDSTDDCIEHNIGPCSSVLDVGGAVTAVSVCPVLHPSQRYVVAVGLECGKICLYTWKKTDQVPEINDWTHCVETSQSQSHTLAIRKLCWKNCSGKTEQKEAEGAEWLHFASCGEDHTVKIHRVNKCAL
T1 sequence (Q9H9T3 whole entry, chain 3 of 3): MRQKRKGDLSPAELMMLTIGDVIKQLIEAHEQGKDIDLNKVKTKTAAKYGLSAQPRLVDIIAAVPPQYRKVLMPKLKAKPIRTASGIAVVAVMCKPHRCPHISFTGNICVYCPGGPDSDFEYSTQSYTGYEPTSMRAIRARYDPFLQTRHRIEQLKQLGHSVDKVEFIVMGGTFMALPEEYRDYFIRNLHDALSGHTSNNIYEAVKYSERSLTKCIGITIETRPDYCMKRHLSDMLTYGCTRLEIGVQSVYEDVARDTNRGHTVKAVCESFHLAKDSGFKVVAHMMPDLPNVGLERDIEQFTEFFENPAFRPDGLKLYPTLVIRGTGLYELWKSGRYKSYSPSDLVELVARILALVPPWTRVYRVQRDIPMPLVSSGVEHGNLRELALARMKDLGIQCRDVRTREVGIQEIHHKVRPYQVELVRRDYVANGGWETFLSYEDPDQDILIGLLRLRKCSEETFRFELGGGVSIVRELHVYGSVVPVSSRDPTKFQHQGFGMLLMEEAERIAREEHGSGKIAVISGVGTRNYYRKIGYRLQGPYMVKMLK

B1: Homo sapiens Elp456 subcomplex with Elp4 Δ133–175 (complex)
chain 1: MAAVATCGSVAASTGSAVATASKSNVTSFQRRGPRASVTNDSGPRLVSIAGTRPSVRNGQLLVSTGLPALDQLLGGGLAVGTVLLIEEDKYNIYSPLLFKYFLAEGIVNGHTLLVASAKEDPANILQELPAPSSSRFGHYYDASKRMPQELIEASNWHGFFLPEKISSTLKVEPCSLTPGYTKLLQFIQNIIYEEGFDGSNPQKKQRNILRIGIQNLGSPLWGDDICCAENGGNSHSLTKFLYVLRGLLRTSLSACIITMPTHLIQNKAIIARVTTLSDVVVGLESFIGSERETNPLYKDYHGLIHIRQIPRLNNLICDESDVKDLAFKLKRKLFTIERLHLPPDLSDTVSRSSKMDLAESAKRLGPGCGMMAGGKKHLDF
chain 2: MLDSLLALGGLVLLRDSVEWEGRSLLKALVKKSALCGEQVHILGCEVSEEEFREGFDSDINNRLVYHDFFRDPLNWSKTEEAFPGGPLGALRAMCKRTDPVPVTIALDSLSWLLLRLPCTTLCQVLHAVSHQDSCPGDSSSVGKVSVLGLLHEELHGPGPVGALSSLAQTEVTLGGTMGQASAHILCRRPRQRPTDQTQWFSILPDFSLDLQEGPSVESQPYSDPHIPPVDPTTHLTFNLHLSKKEREARDSLILPFQFSSEKQQALLRPRPGQATSHIFYEPDAYDDLDQEDPDDDLDI
chain 3: MFVELNNLLNTTPDRAEQGKLTLLCDAKTDGSFLVHHFLSFYLKANCKVCFVALIQSFSHYSIVGQKLGVSLTMARERGQLVFLEGLKSAVDVVFQAQKEPHPLQFLREANAGNLKPLFEFVREALKPVDSGEARWTYPVLLVDDLSVLLSLGMGAVAVLDFIHYCRATVCWELKGNMVVLVHDSGDAEDEENDILLNGLSHQSHLILRAEGLATGFCRDVHGQLRILWRRPSQPAVHRDQSFTYQYKIQDKSVSFFAKGMSPAVL
notes: Elp5, human, ORF; Elp6, human, ORF; source: Hi-5 insect cells (baculovirus, biGBac), purified (IgG Sepharose with TEV elution, Superose 6); not shown: FLAG, C-terminal, kept; Protein A, C-terminal, cleaved; copies: 2 + 2 + 2
B1: the binding result in data set [1] is recorded as “binds”.

B2: Saccharomyces cerevisiae Elp1 (natural protein, UniProt Q06706 1-1349, looked up)
chain: MVEHDKSGSKRQELRSNMRNLITLNKGKFKPTASTAEGDEDDLSFTLLDSVFDTLSDSITCVLGSTDIGAIEVQQFMKDGSRNVLASFNIQTFDDKLLSFVHFADINQLVFVFEQGDIITATYDPVSLDPAETLIEIMGTIDNGIAAAQWSYDEETLAMVTKDRNVVVLSKLFEPISEYHLEVDDLKISKHVTVGWGKKETQFRGKGARAMEREALASLKASGLVGNQLRDPTMPYMVDTGDVTALDSHEITISWRGDCDYFAVSSVEEVPDEDDETKSIKRRAFRVFSREGQLDSASEPVTGMEHQLSWKPQGSLIASIQRKTDLGEEDSVDVIFFERNGLRHGEFDTRLPLDEKVESVCWNSNSEALAVVLANRIQLWTSKNYHWYLKQELYASDISYVKWHPEKDFTLMFSDAGFINIVDFAYKMAQGPTLEPFDNGTSLVVDGRTVNITPLALANVPPPMYYRDFETPGNVLDVACSFSNEIYAAINKDVLIFAAVPSIEEMKKGKHPSIVCEFPKSEFTSEVDSLRQVAFINDSIVGVLLDTDNLSRIALLDIQDITQPTLITIVEVYDKIVLLRSDFDYNHLVYETRDGTVCQLDAEGQLMEITKFPQLVRDFRVKRVHNTSAEDDDNWSAESSELVAFGITNNGKLFANQVLLASAVTSLEITDSFLLFTTAQHNLQFVHLNSTDFKPLPLVEEGVEDERVRAIERGSILVSVIPSKSSVVLQATRGNLETIYPRIMVLAEVRKNIMAKRYKEAFIVCRTHRINLDILHDYAPELFIENLEVFINQIGRVDYLNLFISCLSEDDVTKTKYKETLYSGISKSFGMEPAPLTEMQIYMKKKMFDPKTSKVNKICDAVLNVLLSNPEYKKKYLQTIITAYASQNPQNLSAALKLISELENSEEKDSCVTYLCFLQDVNVVYKSALSLYDVSLALLVAQKSQMDPREYLPFLQELQDNEPLRRKFLIDDYLGNYEKALEHLSEIDKDGNVSEEVIDYVESHDLYKHGLALYRYDSEKQNVIYNIYAKHLSSNQMYTDAAVAYEMLGKLKEAMGAYQSAKRWREAMSIAVQKFPEEVESVAEELISSLTFEHRYVDAADIQLEYLDNVKEAVALYCKAYRYDIASLVAIKAKKDELLEEVVDPGLGEGFGIIAELLADCKGQINSQLRRLRELRAKKEENPYAFYGQETEQADDVSVAPSETSTQESFFTRYTGKTGGTAKTGASRRTAKNKRREERKRARGKKGTIYEEEYLVQSVGRLIERLNQTKPDAVRVVEGLCRRNMREQAHQIQKNFVEVLDLLKANVKEIYSISEKDRERVNENGEVYYIPEIPVPEIHDFPKSHIVDF
notes: Elp1, S. cerevisiae, full-length ORF; also called ScElp1; source: S. cerevisiae DS1-2b, overexpressed, purified within ScElongator
Take B2: the binding result in data set [2] is on record as “binds”.
